From patent publication US20240261333A1, “NOVEL TARGETS FOR ENHANCING ANTI-TUMOR IMMUNITY” (THE BROAD INSTITUTE, INC., priority 2021, published 2024)

Target: T1, B3GNT2 (Homo sapiens, UniProt Q9NY97)
T1 construct: The respective ORFs of candidate genes [CD274 (NM_014143), MCL1 (NM_021960), JUNB (NM_002229), and B3GNT2 (NM_006577)] were synthesized; expressed in transfected cells; host or cells: A375 melanoma cells (lentiviral ORF overexpression)
T1 sequence (Q9NY97 1-397): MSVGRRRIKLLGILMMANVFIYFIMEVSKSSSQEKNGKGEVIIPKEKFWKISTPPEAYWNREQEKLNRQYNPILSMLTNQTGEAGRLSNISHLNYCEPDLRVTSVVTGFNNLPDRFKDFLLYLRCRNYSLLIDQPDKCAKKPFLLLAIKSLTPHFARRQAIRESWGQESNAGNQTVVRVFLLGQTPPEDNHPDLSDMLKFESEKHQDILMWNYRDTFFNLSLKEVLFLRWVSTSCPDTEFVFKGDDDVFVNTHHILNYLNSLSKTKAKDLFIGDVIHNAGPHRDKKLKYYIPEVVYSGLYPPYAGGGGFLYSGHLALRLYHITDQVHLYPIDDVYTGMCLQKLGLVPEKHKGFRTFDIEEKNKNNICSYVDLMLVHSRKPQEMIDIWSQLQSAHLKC
Experiment: Co-IP of FLAG-tagged B3GNT2 followed by mass spectrometry
Type: cell-based
Parameters: C-term IgG / C-term flag: unit not given here
Experimental: Cells were plated in 10-cm cell culture dishes and grown to 60-80% confluency. For each condition, two biological replicates were harvested for co-IP. Cells were washed with PBS and 4 mL of lysis buffer (20 mM HEPES, 1% Triton X-100, 150 mM NaCl, 1 mM EDTA, and 10% glycerol) containing protease inhibitor cocktail was added. Cells were scraped and lysate was incubated at 4° C. under rotary agitation for 1 h. Lysate was centrifuged at 14,000×g for 10 min at 4° C. Supernatant was transferred to a new tube and an aliquot was taken as the input. […] For Western blots, 10 μg/mL Chicken Anti-FLAG (Aves labs ET-DY100) and IgY control (R&D Systems AB-101-C) antibodies were biotinylated (Thermo Fisher Scientific 90407) and added to the respective conditions. Lysates with antibodies were incubated at 4° C. under rotary agitation overnight. For each mL of lysate, 50 μL of Pierce Protein A/G Magnetic Beads (Mass spectrometry; Thermo Fisher Scientific 88803) or Pierce Streptavidin Magnetic Beads (Western blot; Thermo Fisher Scientific 88817) was washed twice with lysis buffer. Lysates with antibodies were added to the beads and incubated at 4° C. under rotary agitation for 4 h. Beads were washed with lysis buffer 3 times and resuspended in lysis buffer for storage. […] This solution was subjected to solid phase extraction to concentrate the peptides and remove unwanted reagents followed by injection onto a Shimadzu HPLC with fraction collector. Eight fractions were collected and after concentration were injected on a Waters NanoAcquity HPLC equipped with a self-packed Aeris 3 μm C18 analytical column 0.075 mm by 20 cm, (Phenomenex). Peptides were eluted using standard reverse-phase gradients. The effluent from the column was analyzed using a Thermo Orbitrap Elite mass spectrometer (nanospray configuration) operated in a data dependent manner for 54 minutes. […] Scaffold Q+S (Proteome Software) was used to provide consensus reports for the identified proteins.

[1] = Co-IP with FLAG antibody, C-terminally FLAG-tagged B3GNT2, mass spectrometry count, unit not given
[2] = Co-IP with FLAG antibody, N-terminally FLAG-tagged B3GNT2, mass spectrometry count, unit not given
[3] = Co-IP with IgG control antibody, C-terminally FLAG-tagged B3GNT2, mass spectrometry count, unit not given
[4] = Co-IP with IgG control antibody, N-terminally FLAG-tagged B3GNT2, mass spectrometry count, unit not given
[5] = Co-IP followed by mass spectrometry of B3GNT2, C-term tag, FLAG pull-down
[6] = Co-IP followed by mass spectrometry of B3GNT2, C-term tag, IgG pull-down
[7] = Co-IP followed by mass spectrometry of B3GNT2, N-term tag, FLAG pull-down
[8] = Co-IP followed by mass spectrometry of B3GNT2, N-term tag, IgG pull-down

Row | Substance | C-term flag [1] | N-term FLAG [2] | C-term IgG [3] | N-term IgG [4] | C-term flag [5] | C-term IgG [6] | N-term FLAG [7] | N-term IgG [8]
1 | TUBA1B | 0 | 76 | 0 | 0 |  |  |  | 
2 | PSMD4 | 0 | 2 | 0 | 0 |  |  |  | 
3 | TRIM21 |  |  |  |  | 0 | 0 | 6 | 0
4 | GAPDH | 16 | 18 | 6 | 11 |  |  |  | 
5 | LARP4 | 2 | 0 | 0 | 0 |  |  |  | 
6 | TECR | 9 | 0 | 0 | 0 |  |  |  | 
7 | HSP90B1 | 56 | 9 | 0 | 0 |  |  |  | 
8 | VIM |  |  |  |  | 411 | 337 | 402 | 452
9 | SEC16A | 0 | 2 | 0 | 0 |  |  |  | 
10 | TNC | 10 | 0 | 0 | 0 |  |  |  | 
11 | ERP29 | 0 | 2 | 0 | 0 |  |  |  | 
12 | HDGFL2 | 2 | 0 | 0 | 0 |  |  |  | 
13 | PSMA1 | 0 | 2 | 0 | 0 |  |  |  | 
14 | HADHA | 2 | 0 | 0 | 0 |  |  |  | 
15 | TUBB3 | 82 | 115 | 0 | 0 |  |  |  | 
16 | EMD |  |  |  |  | 2 | 2 | 2 | 0
17 | PCBP1 | 4 | 4 | 3 | 0 |  |  |  | 
18 | STRAP | 3 | 4 | 0 | 0 |  |  |  | 
19 | ERLIN2 | 9 | 8 | 0 | 0 |  |  |  | 
20 | CLTC |  |  |  |  | 7 | 5 | 6 | 6
21 | HSPA5 | 130 | 70 | 12 | 9 |  |  |  | 
22 | CTSD | 4 | 3 | 0 | 3 |  |  |  | 

Second part, the substance after the results:

Row | C-term flag [1] | N-term FLAG [2] | C-term IgG [3] | N-term IgG [4] | C-term flag [5] | C-term IgG [6] | N-term FLAG [7] | N-term IgG [8] | Substance
23 | 12 | 2 | 0 | 0 |  |  |  |  | CSPG4
24 |  |  |  |  | 3 | 0 | 0 | 0 | TFAM
25 | 43 | 3 | 3 | 0 |  |  |  |  | SQSTM1
26 | 2 | 0 | 0 | 0 |  |  |  |  | ABCF1
27 | 2 | 0 | 0 | 0 |  |  |  |  | TOR1AIP2
28 | 23 | 3 | 0 | 0 |  |  |  |  | P4HB
29 | 11 | 10 | 2 | 0 |  |  |  |  | HSP90AB1
30 | 5 | 3 | 0 | 0 |  |  |  |  | SEL1L
31 |  |  |  |  | 0 | 0 | 4 | 0 | HBB
32 |  |  |  |  | 8 | 9 | 7 | 4 | HNRNPA2B1
33 |  |  |  |  | 6 | 0 | 0 | 0 | SSRP1
